{
  "source": "paper PMC8280356",
  "about": "“Purification and Characterization of Nit_(phym), a Robust Thermostable Nitrilase From Paraburkholderia phymatum” (Frontiers in Bioengineering and Biotechnology, 2021)",
  "target": "the molecule itself",
  "experiment": "SEC; analytical gel filtration on Superdex 200 Increase 10/300 GL; 100 uL of purified protein at 3.9 mg/mL; mobile phase 50 mM Tris-HCl pH 8.0, 0.15 mM NaCl, 10% glycerol, 0.3 mL/min; elution volume compared to a calibration curve of proteins of known molecular weight",
  "data": [
    {"protein": "Nit_(phym), nitrilase from Paraburkholderia phymatum DSM 17167 (enzyme, UniProt B2JQY2 1-340, looked up, nitrilase Nit_(phym) (NIT188) from Paraburkholderia phymatum DSM 17167, Uniprot ID B2JQY2; subunit with an apparent molecular mass of 37 kDa on SDS-PAGE; also called NIT188) MSDQRVIRAAAVQIAPDFERPGGTLDRVCAAIDEAASKGVQLIVFPETFVPYYPYFSFVRPPVASGADHMRLYEQAVVVPGPVTHAVSERARRHAMVVVLGVNERDHGSLYNTQLVFDIDGCQVLKRRKITPTFHERMIWGQGDAAGLKVARTGIARVGALACWEHYNPLARYALMTQHEEIHCSQFPGSLVGPIFAEQIEVTIRHHALESGCFVVNSTGWLSDAQIESVTTDPKLQKALRGGCMTAIVSPEGQHLAEPLREGEGMVVADLDMALITKRKRMMDSVGHYARPELLSLAINDRPAMPVVPMSMSFERAGADVAPEIISGGQDECQHEPVAG", "values": [
      {"measurement": "stoichiometry N", "value": "> 18", "unit": "subunits"}
    ]}
  ]
}
